Reference: US7666414B2, “Methods for treating prostate cancer using modified antibodies to prostate-specific membrane antigen” (Cornell Research Foundation, Inc., priority 2001, dated 2010)
pEC50: −log10 of the molar value. Where two headings read alike, the source gives them in different places.

Assays:
[1] = male mice; for AUC, analyte Total deJ591 / AUC, analyte deJ591-DM1: 0-336 hours
[2] = Pharmacokinetics of deJ591 and deJ591-DM1 in cynomolgus monkeys
[3] = system: PSMA-positive CWR22 xenografts; test: Efficacy in PSMA-positive CWR22 xenografts; format: in vivo, C.B-17 scid mice; conditions: for TGD: dosing interval study, five cycles
Procedure: Experiment: Male SCID mice were implanted by serial passage of CWR22 prostate tumor xenograft. […] All treatments were given intravenously. Tumor growth and animal health were continually monitored throughout the study with tumor growth measured every 3 days.
Experiment: Male C.B-17 SCID mice bearing CWR22 xenografts approximately 200 mm^3 in size received IV injections (200 μL constant volume) of the test articles according to the dose and schedule as shown in Table 22.
Male C.B-17 scid mice bearing CWR22 xenografts approximately 200 mm^3 in size received IV injections (200 μL constant volume) of the test articles according to the dose and schedule shown in the Table 23.
The objective of this study was to determine how much the dosing interval could be increased at this dosage before a loss of efficacy in terms of TGD would be observed. […] The growth delays for the other schedules were: q7d, 53.0 days; q21d, 48.0 days; and q28d, 26.9 days. Similar to other studies using the CWR22 xenograft model, no curative responses were observed, with all tumors eventually resuming growth (FIG. 18).
Experiment: Male SCID mice were implanted by serial passage of CWR22 prostate tumor xenograft. […] All treatments were given intravenously and on a schedule of every three days for 5 doses. Tumor growth and animal health were continually monitored throughout the study with tumor growth measured every 3 days.
Experiment: Male SCID mice were implanted by serial passage of CWR22 prostate tumor xenograft. […] All treatments were given intravenously and on a schedule of every seven days for 5 doses. Tumor growth and animal health were continually monitored throughout the study with tumor growth measured every 3 days.

LNCaP = test: Binding to LNCaP by FACS; design: species or system human
[4] = system: micronucleated polychromatic erythrocytes; test: Mouse micronucleus test; conditions: in vivo
LNCaP cells = test: In vitro pharmacodynamics, LNCaP proliferation assay; format: cell-based, human; conditions: 6-day exposure in tissue culture
Procedure: At the end of that period the drug containing media was removed and replaced with drug free media until a total of 144 hours elapsed from the start of the experiment. The resulting effect of drug exposure on proliferation was then determined.

CD-1 mice = system: CD-1 mice
Source text: Use of both mice and cynomolgus monkeys for nonclinical testing allowed comparison of exposure and toxicity across species on the basis of body surface area (mg/m^2), and thus aided in selecting the SSD for the proposed Phase 1 clinical trial.

[5] = system: PSMA-positive 22RV1 xenografts; test: Efficacy in castrate or intact scid mice bearing androgen-independent 22RV1 xenograft; format: in vivo, C.B-17 scid mice; conditions: 12.93 mg/kg
Procedure: Prostate tumors can be broadly classified as either androgen-dependent or androgen-independent. […] The 22RV1 cell line was originally developed as androgen-independent and can be grown as a xenograft in C.B-17 scid mice that have been left either intact or castrated. […] C.B-17 scid mice bearing CWR22 xenografts approximately 200 mm^3 in size received IV injections (200 μL constant volume) of the test articles according to the dosage and schedule shown in the Table 24.

[6] = system: micronucleated polychromatic erythrocytes; conditions: 30, 48, and 90 mg/m^2
[7] = single IV deJ591-DM1 10 mg/kg (30 mg/m^2)
[8] = single IV deJ591-DM1 30 mg/kg (90 mg/m^2)
[9] = single IV deJ591-DM1 90 mg/kg (270 mg/m^2)
[10] = study CTBR 57355, deJ591-DM1 6 mg/kg (72 mg/m^2)
[11] = study CTBR 57355, deJ591-DM1 10 mg/kg (120 mg/m^2)
[12] = study CTBR 57355, deJ591-DM1 16 mg/kg ([…]^2)
[13] = study CTBR 57355, deJ591-DM1 30 mg/kg (360 mg/m^2)
[14] = study CTBR 57355, mean over dosages
[15] = study KLA W-171, deJ591-DM1 6 mg/kg (72 mg/m^2)
[16] = MLN2704 300 mg/m^2 (100 mg/kg), single IV, CD-1 mice

deJ591-DM1: deJ591 conjugated via SPP disulfide linker to the maytansinoid DM1, DM1/antibody ratio about 3.5
Tmax, analyte Total deJ591 [1, 7]: 30 min
Tmax, analyte deJ591-DM1 [1, 7]: 30 min
AUC, analyte Total deJ591 [1, 7]: 8920 µg·h/mL
AUC, analyte deJ591-DM1 [1, 7]: 3260 µg·h/mL
Tmax, analyte Total deJ591 [1, 8]: 4.8 min
Tmax, analyte deJ591-DM1 [1, 8]: 4.8 min
AUC, analyte Total deJ591 [1, 8]: 21000 µg·h/mL
AUC, analyte deJ591-DM1 [1, 8]: 5960 µg·h/mL
Tmax, analyte Total deJ591 [1, 9]: 4.8 min
Tmax, analyte deJ591-DM1 [1, 9]: 4.8 min
AUC, analyte Total deJ591 [1, 9]: 62300 µg·h/mL
AUC, analyte deJ591-DM1 [1, 9]: 30600 µg·h/mL
Tmax, analyte Total deJ591 [2, 10]: 60 min
Tmax, analyte deJ591-DM1 [2, 10]: 48 min
AUC, analyte Total deJ591 [2, 10]: 17200 µg·h/mL
AUC, analyte deJ591-DM1 [2, 10]: 6720 µg·h/mL
Tmax, analyte deJ591-DM1 [2, 11]: 36 min
t1/2, analyte Total deJ591 [2, 11]: 200 h
AUC, analyte Total deJ591 [2, 11]: 31700 µg·h/mL
AUC, analyte deJ591-DM1 [2, 11]: 10600 µg·h/mL
Tmax, analyte Total deJ591 [2, 12]: 54 min
Tmax, analyte deJ591-DM1 [2, 12]: 48 min
AUC, analyte Total deJ591 [2, 12]: 44400 µg·h/mL
AUC, analyte deJ591-DM1 [2, 12]: 15600 µg·h/mL
Tmax, analyte deJ591-DM1 [2, 13]: 48 min
AUC, analyte Total deJ591 [2, 13]: 95000 µg·h/mL
AUC, analyte deJ591-DM1 [2, 13]: 33500 µg·h/mL
Tmax, analyte Total deJ591 [2, 14]: 54 min
Tmax, analyte deJ591-DM1 [2, 14]: 42 min
Tmax, analyte Total deJ591 [2, 15]: 300 min
Tmax, analyte deJ591-DM1 [2, 15]: 60 min
AUC, analyte Total deJ591 [2, 15]: 19900 µg·h/mL
AUC, analyte deJ591-DM1 [2, 15]: 5020 µg·h/mL
return to normal growth kinetics following the last dose ([3]; 7.25 mg/kg every seven days for 5 doses): approximately 10 days
Tumor Growth Delay ([3]; 7.28 mg/kg (120 μg/kg DM1-equivalents), q3dX5, IV): 27.1 days
Tumor Growth Delay ([3]; 7.28 mg/kg (120 μg/kg DM1-equivalents), qdX5, IV): 19.6 days
tumor growth ([3]; 14.5 mg/kg every seven days for 5 doses): suppression of tumor growth with some reduction from the initial tumor volume
tumor growth ([3]; 14.5 mg/kg, 7 and 14 day dosing interval): apparent block in tumor growth with a resumption of normal growth kinetics approximately 30 days after the last dose
tumor growth ([3]; 14.5 mg/kg, 21 or 28 day dosing interval): slowed growth
Tumor Growth Delay ([3]; 14.56 mg/kg (240 μg/kg DM1-equivalents), q3dX5, IV): 36.7 days
Tumor Growth Delay ([3]; 14.56 mg/kg (240 μg/kg DM1-equivalents), qdX5, IV): 26.9 days
Tumor Growth Delay ([3]; Comparison II, 4.8 mg/kg (90 μg/kg DM1-equivalents), q3dX5): 31.9 days
Tumor Growth Delay ([3]; Comparison II, 6.5 mg/kg (120 μg/kg DM1-equivalents), q3dX5): 37.8 days
Tumor Growth Delay ([3]; Comparison II, 6.5 mg/kg (120 μg/kg DM1-equivalents), q7dX5): 33.9 days
Tumor Growth Delay ([3]; Comparison II, 9.7 mg/kg (180 μg/kg DM1-equivalents), q3dX5): 42.7 days
Tumor Growth Delay ([3]; Comparison II, 12.93 mg/kg (240 μg/kg DM1-equivalents), q3dX5): 46.4 days
Tumor Growth Delay ([3]; Comparison II, 12.93 mg/kg (240 μg/kg DM1-equivalents), q7dX5): 66.8 days
associated toxicity ([3]; all dosages, Comparison I): less for all dosages of deJ591-DM1 relative to maytansine alone
curative effect ([3]; doses and schedules of Comparison I): non-curative
TGD ([3]; 12.93 mg/kg, q7d): 53.0 days
TGD ([3]; 12.93 mg/kg, q14d): 75.7 days
TGD ([3]; 12.93 mg/kg, q21d): 48.0 days
TGD ([3]; 12.93 mg/kg, q28d): 26.9 days
Efficacious dosage in SCID mouse xenografts, DM1-Equivalents received ([3]; mouse, in vivo): ~0.72 mg/m^2
In vivo activity - mouse xenograft model ([3]; reference standard batch): Delays tumor growth
effect on large tumors, 500 to 2000 mm^3 ([3]; second course, 12.93 mg/kg): potent regressions
pEC50 (LNCaP; listed as 1552-60S): 8.10
pEC50 (LNCaP; listed as N067020302): 8.16
Lowest genotoxic dosage in ICR mice, DM1-Equivalents received [4]: 0.54 mg/m^2
IC50 on PSMA-positive LNCaP cells (LNCaP cells): 0.21 µg/mL
Degree of Toxicity and Major Target Organs (CD-1 mice; 30 mg/m^2 (10 mg/kg)): Mild toxicity to testes.
Degree of Toxicity and Major Target Organs (CD-1 mice; 48 mg/m^2 (16 mg/kg)): Mild to moderate toxicity to reproductive
Degree of Toxicity and Major Target Organs (CD-1 mice; 90 mg/m^2 (30 mg/kg)): Mild to moderate toxicity to reproductive,
Degree of Toxicity and Major Target Organs (CD-1 mice; 300 mg/m^2 (100 mg/kg)): Moderate to severe toxicity to reproductive,
mortality (CD-1 mice; 480 mg/m^2 (160 mg/kg)): 100% mortality attributed to severe
Degree of Toxicity and Major Target Organs (CD-1 mice; MLN2704 30 mg/m^2 (10 mg/kg), single IV, CD-1 mice): Mild toxicity to testes.
Degree of Toxicity and Major Target Organs (CD-1 mice; MLN2704 48 mg/m^2 (16 mg/kg), single IV, CD-1 mice): Mild to moderate toxicity to
elevated AST and ALT values (CD-1 mice; MLN2704 90 mg/m^2 (30 mg/kg), single IV, CD-1 mice): mitosis/necrosis of liver; slightly
elevated AST and ALT values (CD-1 mice; MLN2704 180 mg/m^2 (60 mg/kg), single IV, CD-1 mice): mitosis/necrosis of liver; moderately
elevated AST and ALT values (CD-1 mice; [16]): mitosis/necrosis of liver; markedly
mortality (CD-1 mice; [16]): 30% mortality attributed to severe
Degree of Toxicity and Major Target Organs (CD-1 mice; MLN2704 300 mg/m^2 (100 mg/kg), single IV, CD-1 mice, survivors): toxicity. Moderate to severe toxicity to
mortality (CD-1 mice; MLN2704 480 mg/m^2 (160 mg/kg), single IV, CD-1 mice): 100% mortality attributed to severe
Mouse LD10 (female) (CD-1 mice; calculated): 95 mg/kg
Mouse LD10 (female), DM1-Equivalents received (CD-1 mice; calculated): 5.13 mg/m^2
Mouse LD10 (male) (CD-1 mice; calculated): 96 mg/kg
Mouse LD10 (male), DM1-Equivalents received (CD-1 mice; calculated): 5.18 mg/m^2
lower testes weights (CD-1 mice; lowest tested dosage 30 mg/m^2): 10%
Mouse LD100 (CD-1 mice; mouse, in vivo): 160 mg/kg
Mouse MTD (CD-1 mice; mouse, in vivo): 60 mg/kg
Mouse STD, DM1-Equivalents received (CD-1 mice; mouse, in vivo): 5.40 mg/m^2
LD100 (CD-1 mice; single IV, CD-1 mice): 160 mg/kg
MTD (CD-1 mice; single IV, CD-1 mice): 60 mg/kg
LD10 (females) (CD-1 mice; single IV, CD-1 mice, females, calculated): 95 mg/kg
LD10 (males) (CD-1 mice; single IV, CD-1 mice, males, calculated): 96 mg/kg
Tumor Growth Delay ([5]; Castrate Mice, q3dX5): 26.3 days
Tumor Growth Delay ([5]; Intact Mice, q3dX5): 13.1 days
Tumor Growth Delay ([5]; Intact Mice, q7dX5): 7.8 days
increases in micronucleated polychromatic erythrocytes [6]: positive
